# Results: patent US9513240B2, “MEMS-based calorimeter, fabrication, and use thereof” (The Trustees of Columbia University in the City of New York, priority 2011, dated 2016)
# Assays:
# [1] = MEMS DSC measurement of lysozyme unfolding; assay type: physicochemical; conditions: lysozyme 1 to 20 mg/mL in 0.1 M Glycine-HCl buffer (pH 2.5); scan 25-75° C. at 5° C./min
# Protocol: DSC measurements of biomolecules were performed using the calibrated microdevice, whose sample chamber and reference chamber were respectively filled with biological sample and buffer solutions, scanned in a range of temperature of interest. The temperature sensors were used to monitor the temperatures of calorimetric chambers while the device output was obtained in real time to compute the biomolecular thermal power. Before DSC measurements, the baseline in device output, i.e., the thermopile output voltage in the absence of a differential power input, during temperature scanning was measured with both calorimetric chambers filled with buffer solutions. Biological sample and buffer solutions were degassed with a vacuum chamber built in-house, metered with micropipettes, and introduced by a syringe pump (New Era Pump Systems, NE 1000).
# The calibrated MEMS DSC device was employed to characterize protein unfolding, a common type of biomolecular conformational transition.
# The thermopile output voltage as a function of temperature, corrected by baseline subtraction, was measured at varying protein concentrations ranging from 1 to 20 mg/mL (FIG. 10). […]
# [2] = typical range; cited from earlier work
# [3] = MEMS AC-DSC measurement of lysozyme unfolding; assay type: physicochemical
# Text: The DSC measurement system was configured similarly to that of Example 2. The microdevice was also placed in a thermal enclosure built in-house. The temperature of the sample stage in the thermal enclosure was controlled in closed-loop via a proportional-integral-derivative (PID) algorithm implemented by a commercial temperature controller (Lakeshore 331). The on-chip microheaters driven by a DC power supply (Agilent E3631A) were used to generate a constant differential power input, while for modulated heating, a square-wave AC voltage generated by a waveform generator (Agilent 33220A) was applied (FIG. 13). […] During device calibration, the thermopile output voltage was measured by a nanovoltmeter (Agilent 34420A), while during AC-DSC measurement, the amplitude and phase of thermopile voltage were measured by a lock-in amplifier (Stanford Research Systems SR830) referenced by the same AC modulation square wave from the waveform generator. […]
# The methods for calibrating the DC performance of the MEMS device were substantially the same as described in Example 2. The baseline in device output, i.e., the thermopile voltage with no differential power input during temperature scanning, was measured with both chambers filled with buffer solutions. […]
substance,measurement,setting,value
lysozyme,melting temperature Tm,[1],approximately 55 °C
same,total change of molar enthalpy (ΔH) of unfolding,[1],approximately 450 kJ/mol
same,"Tm, published data",[2],55-58.9 °C
same,"ΔH of unfolding, published data",[2],90.1 to 105 kcal/mol
same,apparent melting temperature (Tm),"[3]; 10 and 20 mg/mL in 0.1 M Glycine-HCl buffer, pH 2.5, 25 to 82° C. at 5° C./min, modulation 1, 5 or 10 Hz",55-58 °C
same,difference in the specific heat capacity (Δc) between native and unfolded states,[3]; regardless of the modulation frequency,3.0 kJ/mol·K
